Measurements published in paper PMC7322189 (iScience, 2020).

B1: Recombinant His-GIV-CT (C terminus of GIV/Girdin), wild type (domain or fragment)
chain: SETLESRHHKIKTGSPGSEVVTLQQFLEESNKLTSVQIKSSSQENLLDEVMKSLSVSSDFLGKDKPVSCGLARSVSGKTPGDFYDRRTTKPEFLRPGPRKTEDTYFISSAGKPTPGTQGKIKLVKESSLSRQSKDSNPYATLPRASSVISTAEGTTRRTSIHDFLTKDSRLPISVDSPPAAADSNTTAASNVDKVQESRNSKSRSREQQSS
B2: Recombinant His-Bem1p (natural protein, yeast, UniProt P29366 1-551, looked up)
chain: MLKNFKLSKRDSNGSKGRITSADISTPSHDNGSVIKHIKTVPVRYLSSSSTPVKSQRDSSPKNRHNSKDITSPEKVIKAKYSYQAQTSKELSFMEGEFFYVSGDEKDWYKASNPSTGKEGVVPKTYFEVFDRTKPSSVNGSNSSSRKVTNDSLNMGSLYAIVLYDFKAEKADELTTYVGENLFICAHHNCEWFIAKPIGRLGGPGLVPVGFVSIIDIATGYATGNDVIEDIKSVNLPTVQEWKSNIARYKASNISLGSVEQQQQQSITKPQNKSAKLVDGELLVKASVESFGLEDEKYWFLVCCELSNGKTRQLKRYYQDFYDLQVQLLDAFPAEAGKLRDAGGQWSKRIMPYIPGPVPYVTNSITKKRKEDLNIYVADLVNLPDYISRSEMVHSLFVVLNNGFDREFERDENQNNIKTLQENDTATFATASQTSNFASTNQDNTLTGEDLKLNKKLSDLSLSGSKQAPAQSTSGLKTTKIKFYYKDDIFALMLKGDTTYKELRSKIAPRIDTDNFKLQTKLFDGSGEEIKTDSQVSNIIQAKLKISVHDI

Key:
[1] = target: GST-hExo70 (human Exo70) (human, UniProt Q9UPT5 1-735); test: pull-down
[2] = target: GST-Exo70p (yeast Exo70) (yeast, UniProt P19658 1-623); test: pull-down
Sequence of GST-Exo70p (yeast Exo70) (P19658 whole entry): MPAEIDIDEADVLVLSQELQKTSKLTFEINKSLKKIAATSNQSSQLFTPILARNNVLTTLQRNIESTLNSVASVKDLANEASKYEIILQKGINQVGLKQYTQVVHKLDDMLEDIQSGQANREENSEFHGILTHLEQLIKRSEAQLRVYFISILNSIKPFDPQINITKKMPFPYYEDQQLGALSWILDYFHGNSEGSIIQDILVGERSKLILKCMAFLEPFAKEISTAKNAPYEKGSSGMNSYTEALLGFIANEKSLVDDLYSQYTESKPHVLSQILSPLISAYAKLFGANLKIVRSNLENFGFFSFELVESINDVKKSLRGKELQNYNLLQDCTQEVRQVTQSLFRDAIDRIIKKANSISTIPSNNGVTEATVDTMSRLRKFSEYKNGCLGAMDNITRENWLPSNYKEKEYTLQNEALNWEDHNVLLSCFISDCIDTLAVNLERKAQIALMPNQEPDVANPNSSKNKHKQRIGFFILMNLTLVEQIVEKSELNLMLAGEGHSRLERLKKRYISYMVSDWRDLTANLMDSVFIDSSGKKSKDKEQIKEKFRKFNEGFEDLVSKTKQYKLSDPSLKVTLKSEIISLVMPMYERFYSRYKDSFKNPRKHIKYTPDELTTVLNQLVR

Sequence of GST-hExo70 (human Exo70) (Q9UPT5 whole entry): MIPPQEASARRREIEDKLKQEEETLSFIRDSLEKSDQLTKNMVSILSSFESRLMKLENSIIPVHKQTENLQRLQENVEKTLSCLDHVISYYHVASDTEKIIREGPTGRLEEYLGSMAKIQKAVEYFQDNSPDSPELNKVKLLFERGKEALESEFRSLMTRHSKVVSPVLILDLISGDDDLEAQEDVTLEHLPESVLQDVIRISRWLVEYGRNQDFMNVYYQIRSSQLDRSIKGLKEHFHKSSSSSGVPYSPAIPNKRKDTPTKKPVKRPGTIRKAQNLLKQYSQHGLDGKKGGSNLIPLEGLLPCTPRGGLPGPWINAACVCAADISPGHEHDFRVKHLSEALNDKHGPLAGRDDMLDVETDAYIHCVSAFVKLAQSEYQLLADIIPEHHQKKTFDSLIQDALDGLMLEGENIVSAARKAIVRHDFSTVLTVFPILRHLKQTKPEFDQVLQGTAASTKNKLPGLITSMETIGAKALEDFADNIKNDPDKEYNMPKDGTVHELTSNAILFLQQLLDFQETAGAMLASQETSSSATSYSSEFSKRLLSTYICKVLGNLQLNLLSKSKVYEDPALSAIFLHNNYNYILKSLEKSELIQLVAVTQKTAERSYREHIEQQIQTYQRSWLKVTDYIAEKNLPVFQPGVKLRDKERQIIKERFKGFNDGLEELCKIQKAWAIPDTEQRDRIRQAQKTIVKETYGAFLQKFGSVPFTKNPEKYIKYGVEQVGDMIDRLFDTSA

Row | fold binding against yeast Exo70p [1] [fold] | fold binding against human Exo70 [2] [fold] | Binder
1 | 4 | – | B1
2 | – | 2 | B2
